Reference: patent US12365732 (23ANDME, dated 2025)

What was measured:
[1] = biological target: T1, hu-CD96 isoform 2 on CHO cells (human, UniProt P40200 22-585); test: FACS, Ab 0.0032 nM
T1 construct: also called CHO-CD96 (isoform 2); CD96-CHOs
T1 sequence: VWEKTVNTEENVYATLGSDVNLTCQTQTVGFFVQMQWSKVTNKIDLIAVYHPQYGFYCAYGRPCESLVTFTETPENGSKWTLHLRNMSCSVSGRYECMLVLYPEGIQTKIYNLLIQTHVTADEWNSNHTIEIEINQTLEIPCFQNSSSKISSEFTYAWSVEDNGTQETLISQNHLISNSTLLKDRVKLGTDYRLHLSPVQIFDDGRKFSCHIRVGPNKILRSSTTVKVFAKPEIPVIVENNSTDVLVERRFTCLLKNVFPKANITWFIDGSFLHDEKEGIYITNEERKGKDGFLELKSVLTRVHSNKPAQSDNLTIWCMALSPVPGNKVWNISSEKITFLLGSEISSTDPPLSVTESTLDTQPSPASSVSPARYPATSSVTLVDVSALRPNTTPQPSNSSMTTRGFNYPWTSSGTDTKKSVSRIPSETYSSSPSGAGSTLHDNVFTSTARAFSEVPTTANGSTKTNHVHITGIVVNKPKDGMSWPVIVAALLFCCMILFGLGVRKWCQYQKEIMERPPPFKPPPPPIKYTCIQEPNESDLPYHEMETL
Experimental: (§1) Isoform 1 of hu-CD96 (Origene, catalog #RC213845) was transiently expressed in HEK293T cells following standard lipofectamine or Fugene transfection protocol. […] Cells were washed, and binding was detected by incubation with anti-mouse IgG-FITC (Biolegend, catalog #406001) for 20 minutes at 4° C. Cell binding was analyzed by flow cytometry with a CytoFLEX (Beckman Coulter). Binding curves were calculated as a percentage of cells positive for bound antibody.
(§2) Isoform 2 of hu-CD96 (DNA construct: Origene, catalog #RC221005) was expressed on a single-cell-clone-derived CHO stable cell line. Binding of the anti-CD96 antibodies to the CHO cells were determined as described above with isoform 1 of hu-CD96.

[2] = biological target: T2, hu-CD96 isoform 1 on HEK293T cells (human, UniProt P40200 22-585); test: FACS, Ab 0.4 nM
T2 construct: Origene RC213845, transient expression; also called HEK293T-CD96 (iso1)
T2 sequence: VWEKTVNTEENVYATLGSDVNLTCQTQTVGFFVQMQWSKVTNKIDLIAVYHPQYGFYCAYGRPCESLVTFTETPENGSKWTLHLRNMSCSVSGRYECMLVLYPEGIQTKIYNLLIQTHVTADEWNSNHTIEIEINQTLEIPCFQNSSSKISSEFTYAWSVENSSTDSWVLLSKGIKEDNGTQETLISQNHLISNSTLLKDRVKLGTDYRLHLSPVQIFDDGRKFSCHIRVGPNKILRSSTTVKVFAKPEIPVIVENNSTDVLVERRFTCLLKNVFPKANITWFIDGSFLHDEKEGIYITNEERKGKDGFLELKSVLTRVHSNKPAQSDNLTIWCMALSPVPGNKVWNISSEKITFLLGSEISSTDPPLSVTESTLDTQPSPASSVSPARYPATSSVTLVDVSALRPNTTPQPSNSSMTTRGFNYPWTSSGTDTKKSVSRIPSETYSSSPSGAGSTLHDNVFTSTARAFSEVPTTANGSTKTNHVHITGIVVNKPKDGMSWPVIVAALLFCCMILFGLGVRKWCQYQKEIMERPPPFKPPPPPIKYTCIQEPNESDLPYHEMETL
Experimental: as §1

[3] = biological target: T1, hu-CD96 isoform 2 on CHO cells; test: FACS, Ab 50 nM
Experimental: as §1, §2

[4] = biological target: T3, cynomolgus monkey CD96 on cynomolgus monkey PBMCs (cynomolgus monkey, UniProt A0A2K5TWV6 22-569); test: FACS, Ab 0.00512 nM
T3 construct: whole, on cells
T3 sequence: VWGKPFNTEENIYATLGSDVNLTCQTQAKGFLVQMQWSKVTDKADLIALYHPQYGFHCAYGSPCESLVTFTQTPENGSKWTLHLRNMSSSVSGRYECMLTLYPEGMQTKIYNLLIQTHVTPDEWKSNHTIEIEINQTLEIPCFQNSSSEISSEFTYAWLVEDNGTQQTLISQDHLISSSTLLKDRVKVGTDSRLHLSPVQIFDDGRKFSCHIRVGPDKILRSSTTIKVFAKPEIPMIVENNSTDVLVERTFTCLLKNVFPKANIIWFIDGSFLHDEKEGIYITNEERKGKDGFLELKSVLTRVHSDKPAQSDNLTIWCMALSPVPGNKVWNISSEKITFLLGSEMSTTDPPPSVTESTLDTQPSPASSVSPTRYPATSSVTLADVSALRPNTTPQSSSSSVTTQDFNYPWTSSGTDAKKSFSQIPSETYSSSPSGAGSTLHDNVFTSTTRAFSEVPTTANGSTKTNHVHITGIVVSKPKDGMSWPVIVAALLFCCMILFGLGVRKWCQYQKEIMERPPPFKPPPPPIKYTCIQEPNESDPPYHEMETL
Experimental: The ability of the anti-CD96 antibodies to bind primary immune cells from human and cynomolgus monkey with lower level of receptor expression was measured. Human PBMCs (StemCell Technologies, catalog #70025) and cynomolgus monkey PBMCs (Primate Biologicals, catalog #CM-MC) were incubated with human TruStain FcX (Biolegend, catalog #422302) for 10 minutes at 4° C., followed by incubation with an anti-CD96 antibody for 20 minutes at 4° C. Cells were washed and the anti-CD96 antibody binding was detected by incubation with anti-mouse IgG-PE (Thermo Fisher, catalog #M30204) or anti-human IgG (Fab) 2-PE (Thermo Fisher, catalog #H10104) for 20 minutes at 4° C. Cells were washed, and immune subtypes were labeled with anti-CD3 (BD, catalog #557705), anti-CD4 (Biolegend, catalog #317424) and anti-CD8 (BD, catalog #557760) for 20 minutes at 4° C. Cell binding was analyzed by flow cytometry with a CytoFLEX (Beckman Coulter). Binding curves were calculated as a percentage of cells positive for bound antibody in the cell type of interest.

Row | Binder | % positive [1] [%] | % positive [2] [%] | % positive [3] [%] | % positive [4] [%]
1 | 10G1 (clone 10G1.3G8), purified hybridoma antibody (antibody, V domains shown, murine hybridoma IgG) VH: QIQLVQSGPELKKPGETVKISCKASGYPFTTYGMSWVKQAPGKGLKWMGWINTDSGVPTYADDFKGRFAFSLETSANTAYLQINSLKNEDAATYFCARNIYYGWGNFDYWGQGTILTVSS VL: DILMTQSPTTLSVTPGETVSLSCRASQDIYRNLHWYQQKSQGTPRLLIKHASDSISGIPSRFTGSGSGTDFTLSINSVKPEDEGIYYCLQGYSMPYTFGGGTKLEIK | 0.1 | 34.6 | 39.8 | –
2 | 9H4, purified hybridoma antibody (antibody, V domains shown, murine hybridoma IgG) VH: EVQLLETGGGLVKSGGSLKLSCAASGFTFSDYYMYWVRQTPEKRLEWVAAISDDGTYTYYPDSVKGRFTISRDNANNYLYLQMSSLKSEDTAIYYCAKAGSYDYFDVWGAGTTVTVSS VL: DIVLTQSPASLAVSLGQRAIISCKASQSVTFADTGLMHWYQQKPGQQPKLLIYRASNLEVGVPTRFSGSGSGTDFTLNIHPVEEEDVATYYCQQSREYPWTFGGGTKLEIK | 0.3 | 13.9 | 46.2 | –
3 | mAb1.v7 IgG (humanized 12F8) (antibody, V domains shown, human IgG1 N297G) VH: EVQLVQSGAEVKKPGASVKVSCKASGFTFTNNWMHWVRQAPGQGLEWIGMIHPNSGITNINEKFKNRVTMTTDTSTSTAYMELRSLRSEDTAVYYCRSDGTYEGYFDYWGQGTLVTVSS VL: DIQLTQSPSSLSASVGDRVTITCKASQNVGTAIVWYQQKPGKAPKVLIYSASTRYTGVPSRFSGSGSGTDFTLTISSLQPEDFATYYCQQYSSSPLTFGQGTKVEIKG | 0.5 | 12.2 | 44.1 | –
4 | mAb1.v7.NGS9 IgG (antibody, V domains shown, human IgG1 N297G) VH: EVQLVQSGAEVKKPGASVKVSCKASGFTFTNNFMHWVRQAPGQGLEWIGMIHANSGITNINEKFKNRVTMTTDTSTSTAYMELRSLRSEDTAVYYCRSDGVYEGYFDYWGQGTLVTVSS VL: DIQLTQSPSSLSASVGDRVTITCKASQNVGTAIVWYQQKPGKAPKVLIYSASTRYTGVPSRFSGSGSGTDFTLTISSLQPEDFATYYCQQYSSSPLTFGQGTKVEIKG | – | – | – | 7.1
5 | mAb1.v7.NGS10 IgG (antibody, V domains shown, human IgG1 N297G) VH: EVQLVQSGAEVKKPGASVKVSCKASGFTFTNNFMHWVRQAPGQGLEWIGFIHANSGITNINEKFKNRVTMTTDTSTSTAYMELRSLRSEDTAVYYCRSDGIYEGYFDYWGQGTLVTVSS VL: DIQLTQSPSSLSASVGDRVTITCKASQNVGTAIVWYQQKPGKAPKVLIYSASTRYTGVPSRFSGSGSGTDFTLTISSLQPEDFATYYCQQYSSSPLTFGQGTKVEIKG | – | – | – | 9.5
6 | mAb1.v7.NGS11 IgG (antibody, V domains shown, human IgG1 N297G) VH: EVQLVQSGAEVKKPGASVKVSCKASGFTFTNNFMHWVRQAPGQGLEWIGFIHANSGITNINEKFKNRVTMTTDTSTSTAYMELRSLRSEDTAVYYCRSDGVYEGYFDYWGQGTLVTVSS VL: DIQLTQSPSSLSASVGDRVTITCKASQNVGTAIVWYQQKPGKAPKVLIYSASTRYTGVPSRFSGSGSGTDFTLTISSLQPEDFATYYCQQYSSSPLTFGQGTKVEIKG | – | – | – | 10.4
7 | 7E5, purified hybridoma antibody (antibody, V domains shown, murine hybridoma IgG) VH: QVQLKESGPGLVAPSQSLSIICTVSGFSLTNYGIHWIRQPPGKGLEWLGIIWAGGSTNYNSALMSRLTISKDNSKSQVFLKMNSLQTNDTAIYYCARVSMMGFAYWGQGTLVTVSA VL: QAVVTQESALTTSPGETVTLTCRSSTGAVTTSNYANWVQEKPDHLFTGLIGGTNNRAPGVPARFSGSLIGDKAALTITGAQTEDEAIYFCSLWYGSHWVFGGGTKLTVL | 0.1 | 20.4 | 58.9 | –
8 | h10G1 IgG (humanized 10G1) (antibody, V domains shown, human IgG1 N297G) VH: EIQLVQSGSELKKPGASVKVSCKASGYPFTTYGMSWVRQAPGQGLEWMGWINTDSGVPTYADDFKGRFVFSLDTSVSTAYLQISSLKAEDTAVYFCARNIYYGWGNFDYWGQGTLVTVSS VL: EIVMTQSPDFQSVTPKEKVTITCRASQDIYRNLHWYQQKPDQTPKLLIKHASDSISGIPSRFSGSGSGTDFTLTINSLEAEDAAAYYCLQGYSMPYTFGGGTKVEIKG | – | – | – | 7.4
